Patent US6723841

Legend:
[1] = molecular target: human CRF1 receptor (human) (UniProt P34998); experiment: cell-based or functional assay
[2] = molecular target: T1, human CRF2α receptor (human) (UniProt Q13324); experiment: cell-based or functional assay
T1 sequence: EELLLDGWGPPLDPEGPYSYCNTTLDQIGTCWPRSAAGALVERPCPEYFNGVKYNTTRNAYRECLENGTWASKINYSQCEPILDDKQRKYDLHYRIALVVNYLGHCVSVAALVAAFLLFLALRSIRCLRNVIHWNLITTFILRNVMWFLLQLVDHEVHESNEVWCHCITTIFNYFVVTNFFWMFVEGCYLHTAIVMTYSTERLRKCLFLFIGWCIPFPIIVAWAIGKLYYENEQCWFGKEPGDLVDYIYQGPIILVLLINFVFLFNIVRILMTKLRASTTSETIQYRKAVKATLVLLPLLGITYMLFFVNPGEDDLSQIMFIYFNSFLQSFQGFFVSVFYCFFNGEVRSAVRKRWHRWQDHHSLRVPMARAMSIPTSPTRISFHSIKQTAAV

Chain of human CRF1 receptor (human) (P34998 24-415): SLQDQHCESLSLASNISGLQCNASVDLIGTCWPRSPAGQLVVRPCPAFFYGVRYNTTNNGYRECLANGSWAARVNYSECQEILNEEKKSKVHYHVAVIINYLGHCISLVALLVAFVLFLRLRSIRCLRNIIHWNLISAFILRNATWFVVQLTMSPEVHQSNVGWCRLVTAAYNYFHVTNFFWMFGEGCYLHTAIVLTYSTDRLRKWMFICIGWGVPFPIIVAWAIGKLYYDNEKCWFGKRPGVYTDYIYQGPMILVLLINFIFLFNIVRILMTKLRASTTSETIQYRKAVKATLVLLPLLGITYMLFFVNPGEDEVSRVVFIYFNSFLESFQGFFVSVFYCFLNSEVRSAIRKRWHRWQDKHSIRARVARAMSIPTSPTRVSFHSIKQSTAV

Row | EC50 of adenylate cyclase stimulation (cAMP) [1] | EC50 of adenylate cyclase stimulation (cAMP) [2] | Substance
1 | 800 nM | > 1000 nM | Gly41 r/hCRF-OH (from UniProt P06850 154-194) (peptide)
2 | 4 nM | 2 nM | Urotensin I (peptide)
3 | > 1000 nM | > 1000 nM | α-helical oCRF(9-41) (peptide)
